The record followed here is patent publication US20130203167A1 (SYRACUSE UNIVERSITY, published 2013).

Broadly, the Kd is a measure of binding affinity in units of concentration.

The assay concerns the target full-length WDR5 (UniProt P61964 2-334). Put plainly: method not stated; ITC with full-length WDR5 by the Methods.
Ac-LNPHGAARAEVYLR-NH2 [Win motif peptide LNPHGAARAEVYLR (SEQ ID NO. 31)] returned a Kd of 52 nM. Ac-VNPTGCARSEPKMS-NH2 [Win motif peptide VNPTGCARSEPKMS (SEQ ID NO. 30)] came in with a Kd of 47 nM. Regarding Ac-EHQTGSARSEGYYP-NH2 [Win motif peptide EHQTGSARSEGYYP (SEQ ID NO. 32)], the Kd was determined as 415 nM. With Ac-INPTGCARSEPKIL-NH2 [Win motif peptide INPTGCARSEPKIL (SEQ ID NO. 29)] the figure was 78 nM; with Ac-EHVTGCARSEGFYT-NH2 [Win motif peptide EHVTGCARSEGFYT (SEQ ID NO. 33)], 116 nM.
